Test results: article PMC5496246, “Site-specific chemical conjugation of human Fas ligand extracellular domain using trans-cyclooctene – methyltetrazine reactions” (BMC Biotechnology, 2017)

Assays:
Test in all cases: co-IP; receptor-mediated co-immunoprecipitation: sample (5.5 ug) with hFasRECD-Fc (8.8 ug) and Protein G conjugated magnetic beads (1.0 mg) in 1.0 ml 50 mM Tris-HCl, 150 mM NaCl (pH 7.5), 1% Nonidet P40, 0.5% sodium deoxycholate; precipitate read by SDS-PAGE with silver stain
Conditions in all cases: both partners purified
[1] = molecular target: T1, TCO-derivative of NFK3G1CG4-hFasLECD (human, UniProt P48023 139-281, N184Q | N250Q, cysteine in the N-terminal tag sequence modified with trans-cyclooctene-PEG3-maleimide)
T1 construct: holds the reactive cysteine; human Fas ligand extracellular domain, residues 139-281, with N184Q and N250Q; also called hFasLECD-TCO; source: P. pastoris secretory expression, purified (cation exchange); modified with TCO-PEG3-MAL, size-exclusion chromatography; not shown: FLAG, N-terminal, kept
T1 sequence: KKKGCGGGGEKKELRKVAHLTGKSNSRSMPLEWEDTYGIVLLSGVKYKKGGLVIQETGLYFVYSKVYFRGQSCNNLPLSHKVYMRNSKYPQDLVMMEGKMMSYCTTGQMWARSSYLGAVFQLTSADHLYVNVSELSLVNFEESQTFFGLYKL

[2] = molecular target: T2, sulfo-Cy3-TCO conjugated hFasLECD-MTZ (human, UniProt P48023 139-281, N184Q | N250Q, cysteine in the N-terminal tag sequence modified with methyltetrazine-PEG4-maleimide and conjugated with sulfo-Cy3-trans-cyclooctene; estimated 1.6 fluorochromes per hFasLECD trimer)
T2 construct: holds the reactive cysteine; human Fas ligand extracellular domain, residues 139-281, with N184Q and N250Q; Derived from NFK3G1CG4-hFasLECD; Not every subunit of the trimer carries the fluorochrome; also called Sulfo-Cy3-TM-hFasLECD; sulfo-Cy3 conjugated hFasLECD; source: P. pastoris secretory expression, purified (cation exchange); modified with MTZ-PEG4-MAL, reacted with sulfo-Cy3-TCO, purified …
T2 sequence: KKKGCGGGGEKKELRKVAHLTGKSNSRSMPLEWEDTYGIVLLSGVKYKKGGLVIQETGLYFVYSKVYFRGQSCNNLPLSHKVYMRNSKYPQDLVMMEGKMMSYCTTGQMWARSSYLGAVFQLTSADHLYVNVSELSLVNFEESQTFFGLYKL

[3] = molecular target: T3, Avidin-hFasLECD conjugate (human | chicken, UniProt P48023 139-281; P02701 25-152, N184Q | N250Q, cysteine in the N-terminal tag sequence modified with trans-cyclooctene-PEG3-maleimide, joined through the TCO-MTZ reaction to an MTZ-PEG4 group on avidin | lysine residues modified with …)
T3 construct: holds the reactive cysteine; human Fas ligand extracellular domain, residues 139-281, with N184Q and N250Q; avidin from chicken egg white, native homotetramer; Covalent chemical conjugate, thought to be one avidin tetramer to one hFasLECD trimer; on SDS-PAGE mainly one avidin subunit joined to one hFasLECD subunit, less of one avidin subunit with two hFasLECD subunits; not shown: FLAG, …

[4] = molecular target: T4, sulfo-Cy3-MTZ conjugated hFasLECD-TCO (human, UniProt P48023 139-281, N184Q | N250Q, cysteine in the N-terminal tag sequence modified with trans-cyclooctene-PEG3-maleimide and conjugated with sulfo-Cy3-methyltetrazine; estimated 1.5 fluorochromes per hFasLECD trimer)
T4 construct: holds the reactive cysteine; human Fas ligand extracellular domain, residues 139-281, with N184Q and N250Q; Derived from NFK3G1CG4-hFasLECD; Not every subunit of the trimer carries the fluorochrome; also called Sulfo-Cy3-MT-hFasLECD; sulfo-Cy3 conjugated hFasLECD; source: P. pastoris secretory expression, purified (cation exchange); modified with TCO-PEG3-MAL, reacted with sulfo-Cy3-MTZ, purified …
T4 sequence: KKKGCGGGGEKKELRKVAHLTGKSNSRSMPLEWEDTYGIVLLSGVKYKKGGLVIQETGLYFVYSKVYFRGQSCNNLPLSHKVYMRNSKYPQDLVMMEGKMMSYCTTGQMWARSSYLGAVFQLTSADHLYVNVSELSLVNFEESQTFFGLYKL

Measured: binding result

T3 sequence (P02701 25-152, stated change not applied, one chain of several): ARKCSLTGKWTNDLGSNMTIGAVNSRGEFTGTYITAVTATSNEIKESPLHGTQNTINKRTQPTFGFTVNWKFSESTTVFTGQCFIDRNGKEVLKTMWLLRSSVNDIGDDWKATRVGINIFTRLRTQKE

B1: human Fas receptor extracellular domain-human IgG1 Fc domain fusion protein (Fc fusion, UniProt P25445 26-173, looked up)
chain: QVTDINSKGLELRKTVTTVETQNLEGLHHDGQFCHKPCPPGERKARDCTVNGDEPDCVPCQEGKEYTDKAHFSSKCRRCRLCDEGHGLEVEINCTRTQNTKCRCKPNFFCNSTVCEHCDPCTKCEHGIIKECTLTSNTKCKEEGSRSN
notes: human Fas receptor (hFasR) extracellular domain; also called hFasRECD-Fc; source: baculovirus - Bombyx mori expression system, purified
binds: all assays above
